The values below come from patent US20240425885.

Common to all, as to assay: cleavage_in_vitro
For series [1], the system named is T1, OMNI-96 (metagenomic, unknown).
T1 sequence: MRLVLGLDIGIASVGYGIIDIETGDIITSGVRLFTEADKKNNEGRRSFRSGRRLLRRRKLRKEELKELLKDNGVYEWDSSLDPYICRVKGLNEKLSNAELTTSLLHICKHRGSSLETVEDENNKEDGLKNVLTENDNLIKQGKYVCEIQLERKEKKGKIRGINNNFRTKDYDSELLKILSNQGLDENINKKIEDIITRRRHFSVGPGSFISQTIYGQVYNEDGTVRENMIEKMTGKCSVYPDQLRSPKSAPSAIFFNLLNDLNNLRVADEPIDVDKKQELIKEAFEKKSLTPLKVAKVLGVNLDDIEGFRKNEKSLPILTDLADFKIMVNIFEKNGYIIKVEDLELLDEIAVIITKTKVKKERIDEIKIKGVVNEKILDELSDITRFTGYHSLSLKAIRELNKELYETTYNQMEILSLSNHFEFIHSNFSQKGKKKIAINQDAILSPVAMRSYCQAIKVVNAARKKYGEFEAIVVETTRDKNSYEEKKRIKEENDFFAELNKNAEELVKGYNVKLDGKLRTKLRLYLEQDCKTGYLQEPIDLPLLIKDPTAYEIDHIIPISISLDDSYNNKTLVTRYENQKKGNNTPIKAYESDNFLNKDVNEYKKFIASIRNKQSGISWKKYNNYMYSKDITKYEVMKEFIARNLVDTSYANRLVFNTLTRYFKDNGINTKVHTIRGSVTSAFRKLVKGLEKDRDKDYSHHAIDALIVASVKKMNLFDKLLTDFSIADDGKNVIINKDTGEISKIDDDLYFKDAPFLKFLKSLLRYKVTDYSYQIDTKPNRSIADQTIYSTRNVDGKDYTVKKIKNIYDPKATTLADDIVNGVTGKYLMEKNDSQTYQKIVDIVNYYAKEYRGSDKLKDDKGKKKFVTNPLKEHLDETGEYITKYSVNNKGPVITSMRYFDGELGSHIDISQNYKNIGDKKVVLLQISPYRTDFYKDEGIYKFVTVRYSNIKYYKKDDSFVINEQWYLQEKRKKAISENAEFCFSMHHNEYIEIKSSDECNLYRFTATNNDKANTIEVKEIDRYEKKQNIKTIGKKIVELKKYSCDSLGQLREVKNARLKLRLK
As to conditions: TXTL; PAM NYAAGNNN

In series [2] the test system is T2, OMNI-98 (metagenomic, unknown).
T2 sequence: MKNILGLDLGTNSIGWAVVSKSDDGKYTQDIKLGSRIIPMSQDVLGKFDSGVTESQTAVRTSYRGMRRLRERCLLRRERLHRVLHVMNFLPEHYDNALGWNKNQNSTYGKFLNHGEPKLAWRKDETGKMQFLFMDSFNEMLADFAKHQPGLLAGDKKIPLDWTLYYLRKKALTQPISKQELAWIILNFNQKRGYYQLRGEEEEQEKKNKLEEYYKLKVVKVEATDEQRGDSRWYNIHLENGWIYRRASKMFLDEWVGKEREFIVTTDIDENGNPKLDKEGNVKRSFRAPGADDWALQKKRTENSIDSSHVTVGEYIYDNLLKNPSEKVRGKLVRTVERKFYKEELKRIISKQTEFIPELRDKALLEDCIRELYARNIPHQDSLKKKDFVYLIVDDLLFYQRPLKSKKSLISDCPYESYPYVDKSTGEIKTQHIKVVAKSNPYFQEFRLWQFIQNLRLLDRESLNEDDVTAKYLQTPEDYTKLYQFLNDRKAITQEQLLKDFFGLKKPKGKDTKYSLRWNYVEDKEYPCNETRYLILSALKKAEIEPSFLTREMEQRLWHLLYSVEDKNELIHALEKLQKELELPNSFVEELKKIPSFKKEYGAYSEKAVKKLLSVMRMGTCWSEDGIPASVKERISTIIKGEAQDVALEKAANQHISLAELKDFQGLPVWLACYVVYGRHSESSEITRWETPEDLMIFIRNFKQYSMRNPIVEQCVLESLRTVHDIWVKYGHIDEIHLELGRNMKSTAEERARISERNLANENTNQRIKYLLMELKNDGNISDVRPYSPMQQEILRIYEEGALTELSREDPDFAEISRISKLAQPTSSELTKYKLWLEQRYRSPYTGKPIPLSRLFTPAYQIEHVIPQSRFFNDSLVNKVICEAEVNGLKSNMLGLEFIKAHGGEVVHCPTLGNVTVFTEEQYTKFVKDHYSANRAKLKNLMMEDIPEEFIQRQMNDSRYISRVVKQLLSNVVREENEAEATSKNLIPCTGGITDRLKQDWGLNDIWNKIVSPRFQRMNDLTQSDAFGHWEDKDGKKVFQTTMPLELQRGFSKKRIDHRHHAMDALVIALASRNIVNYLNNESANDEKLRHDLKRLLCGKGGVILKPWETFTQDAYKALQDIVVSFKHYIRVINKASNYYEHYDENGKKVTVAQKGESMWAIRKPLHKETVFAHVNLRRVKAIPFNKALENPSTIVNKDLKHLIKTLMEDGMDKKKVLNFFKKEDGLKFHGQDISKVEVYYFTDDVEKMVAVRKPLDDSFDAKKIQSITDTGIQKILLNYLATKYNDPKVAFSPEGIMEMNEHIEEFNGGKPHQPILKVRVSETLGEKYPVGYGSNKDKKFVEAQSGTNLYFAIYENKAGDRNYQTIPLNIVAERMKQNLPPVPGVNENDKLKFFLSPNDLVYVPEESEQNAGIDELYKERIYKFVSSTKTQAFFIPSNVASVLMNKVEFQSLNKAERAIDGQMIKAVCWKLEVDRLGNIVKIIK
The settings on record: TXTL; PAM NNAAATNN

Series [3] concerns T3, OMNI-132 (metagenomic, unknown).
T3 sequence: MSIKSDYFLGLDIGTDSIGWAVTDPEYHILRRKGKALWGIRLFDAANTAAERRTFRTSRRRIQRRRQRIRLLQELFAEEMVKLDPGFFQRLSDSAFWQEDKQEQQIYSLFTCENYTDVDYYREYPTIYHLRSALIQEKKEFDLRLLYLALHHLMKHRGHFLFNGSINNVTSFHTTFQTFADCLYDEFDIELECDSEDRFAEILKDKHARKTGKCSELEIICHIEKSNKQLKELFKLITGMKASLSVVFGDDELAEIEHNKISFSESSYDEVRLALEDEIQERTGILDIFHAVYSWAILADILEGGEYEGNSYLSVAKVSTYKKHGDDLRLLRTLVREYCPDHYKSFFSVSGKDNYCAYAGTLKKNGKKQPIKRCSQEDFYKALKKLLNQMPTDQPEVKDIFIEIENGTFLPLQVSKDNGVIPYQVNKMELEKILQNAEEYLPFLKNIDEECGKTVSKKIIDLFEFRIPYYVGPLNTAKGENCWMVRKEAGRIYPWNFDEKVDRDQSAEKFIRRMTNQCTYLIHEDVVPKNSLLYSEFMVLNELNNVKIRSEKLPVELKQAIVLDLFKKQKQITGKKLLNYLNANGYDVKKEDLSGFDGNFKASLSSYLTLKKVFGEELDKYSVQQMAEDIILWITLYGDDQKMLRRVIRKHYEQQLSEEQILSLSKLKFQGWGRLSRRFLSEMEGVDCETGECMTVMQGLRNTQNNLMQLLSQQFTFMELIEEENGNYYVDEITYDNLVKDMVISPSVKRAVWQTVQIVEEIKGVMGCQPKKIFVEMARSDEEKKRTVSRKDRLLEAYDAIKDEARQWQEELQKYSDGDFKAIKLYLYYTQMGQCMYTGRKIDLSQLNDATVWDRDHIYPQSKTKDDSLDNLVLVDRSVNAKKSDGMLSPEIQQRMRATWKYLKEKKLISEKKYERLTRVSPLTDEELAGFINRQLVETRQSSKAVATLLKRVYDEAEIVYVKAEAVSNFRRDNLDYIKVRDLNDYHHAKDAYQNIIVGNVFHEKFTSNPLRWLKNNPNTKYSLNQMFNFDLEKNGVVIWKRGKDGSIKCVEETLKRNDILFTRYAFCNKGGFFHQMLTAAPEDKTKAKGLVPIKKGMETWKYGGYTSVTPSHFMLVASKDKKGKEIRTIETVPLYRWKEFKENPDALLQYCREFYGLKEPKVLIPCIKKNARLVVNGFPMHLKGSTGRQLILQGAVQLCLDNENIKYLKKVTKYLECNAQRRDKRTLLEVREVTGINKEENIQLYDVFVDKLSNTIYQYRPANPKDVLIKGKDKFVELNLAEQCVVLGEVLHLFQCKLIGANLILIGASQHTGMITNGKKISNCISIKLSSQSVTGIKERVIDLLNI
As to conditions: TXTL; PAM NNAAATNN

For series [4], the system named is T4, OMNI-93 (metagenomic, unknown).
T4 sequence: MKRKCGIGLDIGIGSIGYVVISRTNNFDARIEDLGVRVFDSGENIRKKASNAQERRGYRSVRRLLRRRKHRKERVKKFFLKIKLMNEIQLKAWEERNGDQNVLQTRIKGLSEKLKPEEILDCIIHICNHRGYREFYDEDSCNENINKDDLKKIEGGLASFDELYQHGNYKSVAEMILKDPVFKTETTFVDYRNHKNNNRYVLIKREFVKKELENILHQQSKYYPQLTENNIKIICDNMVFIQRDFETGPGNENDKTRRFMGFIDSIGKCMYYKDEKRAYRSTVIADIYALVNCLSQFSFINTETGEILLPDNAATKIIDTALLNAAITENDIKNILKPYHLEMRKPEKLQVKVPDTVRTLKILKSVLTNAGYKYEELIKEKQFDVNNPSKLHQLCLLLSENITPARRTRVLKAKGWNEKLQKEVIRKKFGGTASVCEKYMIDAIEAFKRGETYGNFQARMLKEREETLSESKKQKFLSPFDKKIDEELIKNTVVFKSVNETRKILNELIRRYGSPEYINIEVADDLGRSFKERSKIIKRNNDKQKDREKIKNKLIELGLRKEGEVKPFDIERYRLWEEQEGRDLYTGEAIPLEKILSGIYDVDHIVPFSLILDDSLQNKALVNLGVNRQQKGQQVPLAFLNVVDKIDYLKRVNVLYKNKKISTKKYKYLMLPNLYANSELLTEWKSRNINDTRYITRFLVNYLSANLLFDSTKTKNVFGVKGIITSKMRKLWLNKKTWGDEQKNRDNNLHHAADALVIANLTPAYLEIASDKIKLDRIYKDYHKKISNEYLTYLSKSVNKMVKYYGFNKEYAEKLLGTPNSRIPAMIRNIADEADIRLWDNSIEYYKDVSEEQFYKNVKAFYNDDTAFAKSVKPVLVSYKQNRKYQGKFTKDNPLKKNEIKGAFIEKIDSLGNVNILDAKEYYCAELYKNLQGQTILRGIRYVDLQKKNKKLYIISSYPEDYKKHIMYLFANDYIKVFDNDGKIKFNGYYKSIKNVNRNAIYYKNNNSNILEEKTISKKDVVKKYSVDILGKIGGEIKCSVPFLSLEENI
The settings on record: TXTL.

Regarding “GGAAGAGCAGAGCCUUGGUCUCGUUUUGCUACCCUAAAUUAGAAAAAUAUUAGGACCUAGCAAAACAAGGCUUUAUGCCGAAAUCGGAGUCGACGGGCUCCUUUUUU / GGAAGAGCAGAGCCTTGGTCTCNNNNNNNN / NNNNNNNNGAGACCAAGGCTCTGCTCTTCC [T2 sgRNA 7 V1 ; T2 protospacer + 8N PAM library (pbPOS T2)]”, the activity (1-depletion score) in series [1] was 0.57.

Take “GGAAGAGCAGAGCCUUGGUCUCGUUGUGAAUUGCUUUCGAAAGAAAGCAAUUCACAAUAAGGAUUAUUCCGUUGUGAAAACAUUUAGGACGGGGCAACUCGUCCUUUGUUUUUUU / GGAAGAGCAGAGCCTTGGTCTCNNNNNNNN / NNNNNNNNGAGACCAAGGCTCTGCTCTTCC [T2 sgRNA 9 V1 ; T2 protospacer + 8N PAM library (pbPOS T2)]”: in series [2], the activity (1-depletion score) came out at 0.93. “GGAAGAGCAGAGCCUUGGUCUCGUUUGAGAGUAGUGUAAGAAAUUACACUACAAGUUCAAAUAAAAAUUUAUUCAAAUCCAUUUGCUACAUUGUGUAGAAUUUAAAGAUCUGGCAACAGAUCUUUUUUU / GGAAGAGCAGAGCCTTGGTCTCNNNNNNNN / NNNNNNNNGAGACCAAGGCTCTGCTCTTCC [T2 sgRNA 12 V2 ; T2 protospacer + 8N PAM library (pbPOS T2)]” came in with an activity (1-depletion score) in series [3] of 0.97.

With “GGAAGAGCAGAGCCUUGGUCUCGUCUUAGUACUCUGUUGGAAACAACAAUAGUUCUAAGAUAAGGCUAUUUAUGCCGUAGGGUAUGGUGGUAUCCCUUUAAUCCACCUUUAAGCCAUUGCUUAUGCAAUGGCUUAUCUAUAUUUUUU / GGAAGAGCAGAGCCTTGGTCTCNNNNNNNN / NNNNNNNNGAGACCAAGGCTCTGCTCTTCC [T2 sgRNA 4 V2 ; T2 protospacer + 8N PAM library (pbPOS T2)]”, the activity (1-depletion score) in series [4] (PAM NNGGGGNN) turned out to be 0.97. In the case of “GGAAGAGCAGAGCCUUGGUCUCGUUUUAGUACUCUGUUGGAAACAACAAUAGUUCUAAGAUAAGGCUAUUUAUGCCGUAGGGUAUGGUGGUAUCCCUUUAAUCCACCUUUAAGCCAUUGCUUAUGCAAUGGCUUAUCUAUAUUUUUU / GGAAGAGCAGAGCCTTGGTCTCNNNNNNNN / NNNNNNNNGAGACCAAGGCTCTGCTCTTCC [T2 sgRNA 4 V1 ; T2 protospacer + 8N PAM library (pbPOS T2)]”, in series [4] (PAM NNGGGGNN (specific NNRGGDNN)), the activity (1-depletion score) is 0.99. “GGAAGAGCAGAGCCUUGGUCUCGUUUGAGAGUAGUGUAAGAAAUUACACUACAAGUUCAAAUAAAAAUUUAUUCAAAUCCUUUUGCUACAUUGUGUAGAAUUUAAAGAUCUGGCAACAGAUCUUUUUUAUUUUUU / GGAAGAGCAGAGCCTTGGTCTCNNNNNNNN / NNNNNNNNGAGACCAAGGCTCTGCTCTTCC [T2 sgRNA 32 V1 ; T2 protospacer + 8N PAM library (pbPOS T2)]” gave an activity (1-depletion score) in series [3] of 0.97.
